Reference: the DeepSol protein solubility set

assay: soluble on expression in E. coli; label from the status in PepcDB or PDB records

Soluble on expression in E. coli, not soluble:
MNVRDLSFKLNSIFDINKYEHIDKNLNGLQVGNINAKVNKVAFAVDASFSTLKEAKGNDFLITHHGIFWSKKERIVSNMYDKTKFLIENNLALYSVHLPMDAHSVYSHSKVFSDFLGLKNSFAFANYGGVNLGIIADSVFSFSEILEKIKKENKHILFSKKFKESVNKVAIVSGSGYSFFEEALCHDVDLFITGDTSHQIYSLAEEFGVNLIFAGHYFTETFGLIKLMEDFKIQEDLEVKFICKNTNLLEHHHHHH
MNVSIKNTDAVNAIATVAIEKADYANEVEKALRTYRQRANVPGFRKGMVPMGMIKKMYGKGVKAEEINRVVGRELYRYIAENKLNVLGEPMPNEELQKEYDFDTTDDFEFVFDLALSPVVDVVVDKSIRVPYYTIQPTEEMIDRQIESMRSSYGHSVEADEVTANDVVKGRLCELEDGQPKEGGICVEEAMLLPAYMKDEEEKNKFVGAAKNSVVVFNPSKAYNNNEYELSSLLKVDKSAIGEHTGDFSFEISSISRHEKAELNEEFFKQAFGEETDIKNEADLRVKVTEGVREQFTAESDYKFLIDLRRELEAQVGELQFPDALLKRWLKLSHTEWSDEELEKQYPAMIKDLTFHVIKEDLVKKNDIVVTPQEVRNFAIIVAKNQFAQYGMSAVPQDALERYANTMMEKEDARRNFFDRVTENKLAAALKEKLDIDAKTVSPDEFNKLMTEQPASAE
MNVYHYETSGGKDLILEYIDGLPKNEKAEGLTILEKLEKEGLEALEVLNTRQLRGKLWEIKFYRSNRIMYVVADEDNIYLVHACKKQKGKAEKFELDTAIKRVKELEKELGKKFI
MNYNSKMEPLAIPEYGRNIQNMVNYCMTIGDRDERNRCAQTIITIMGNMFPERRENSETKHILWDHLAIMSGFKLDIDYPMEIISPELLERKPKAVSYSANDIVYRHYGHLIQEMILKACAMEQGEERYALELLIANQMKRSYLTWNKDTVDDYKIFKDLYELSEGRIELTEESCHLTIPNASDRKDNNNTKRNKVFRRK
MPAIKSSADLRNNYNEISTFCHNYPEPVFITKNGKGDLAVMSIEAYEGLTSRFELYSQIKEGMDDIATGNTRPFSEAMADIRSRRSRLEHHHHHH
MPASSTSSPSSKEEDEKHTSADEDVTPTASPSLVKSEVVKEEENDDADRTLTMPSTSQDIQPESSPAHGRSAPSSQEITSPPTVRRVATPLEAAEQEYYYFTTDMINQAALDIEREKEKFDSLITWYKLQRDDVPALGTSSVGNSTAPSYVSEKGSTTPMSSQPSSHQSGTSSTNGAHGGLNGFSCSPFGLENNPRSNDPMQCMSSPVELDEICPTLEDFMSSAASSSTPSTSSAPQMNQNQNTHPNSINHHHQPDTSLLMLNNHHSSPLNQLSFNHQMPSTSNSNPPSNASLKRRATEEFGNDGPMKQAKIEGSENDNNPMRKLEMMANSSNFRGGNTINEVVEASKKDERTLKMEKLDVIGKSVGEEFAQQAREAQMRQMQQAAAAAGSMPPSYPSPGQYPGPMHYPGMPPMMPPGAPFSAGASYPPMGGPFPPNPYGMHPGMTPGGYPMSAPGKMPFGSPSFPQSAPSPAAMAAMQQGRMPGPPMPPHMMTPQQQQHFMQMQQAQMAHFNAQKAAAAAAAAGMSPAARASPMGASPSPHHPHPSQFPPNHPANPMYHHHIMMMRAMHAQGGQPGHPGMMPPGMMPPGMMPPGMMPPGMHPGMAGMPPMHPGMQGMPPMHPGMQGMPGMPHGPPQPPQNPALMVAGNRAGSAEAAAAQMGNPHHPMMGANMWQLTPHYPPPLPASSSSGAGTPVSR
MPDDEKIKLRYSPEESARLIKEEARRLGFSACGFAEAQALPPSVVGTYEKFLSEGRHGEMDYLERNRELRYSPAELLPGTRTVISVALNYYPKIKQPASAPQIAYYAYGKDYHKVVKRLLDKLLDYIRREVCPSVSGRSFSDSAPIAERYWACRAGIGWVGRSGMLILPRGGTFFFLGELLVDIDLPPDAPMPSRCGACRNCIESCPTGAISEEGMDSRLCVSYLTIEHEGEIPPELVGKLGNRFYGCDSCQLCCPWNRYAHPSEVEAFVPREALFTFDRDDLVSLDEEKYLHFFAGSPMKRAGLDGLRRNARALEQGDKKEDEQPTDEDG
MPDVPETVGTPDGSTEFEHRPTTDQSFENALAKARNGTRLTVDDAVELFTTGTDRDGIDHDRKEQVLEAADRRRAEVVGDEVTFVANLNNNVTTACNTGCLFCNFKDRSEQFRSDYQEDHGGFTKTPSESRQIVQDALDRGIYEVCSVSGLHPALALDTEHREILETSDRGDLNYRSPDEYETDPATYCEQLDAMNVGDIHLHSMTPEEAYHARRGTDWSYEEVFSRLQDAGLDSVPGTAAEILVDEVRDVICPGKIRTDEWLEAMAAAASVGLDMTSTMMYGHVENEYHRALHLQRIRDLQDRTGAITEFVPLSFVHEETPLYERGMVDGGATVDEDELMIAVSRLFLDNVDHIQASWVKYGDTQGLKMLTCGADDFMGTILSEEITKRAGGDYGEFRSFQEYADMITAIGRTPVERSTDYEQRRVIDPDADVLGPQLGPRADGTPLLD
MPEFRVWAPKPALVRLDVNGAVHAMTRSADGWWHTTVAAPADARYGYLLDDDPTVLPDPRSARQPDGVHARSQRWEPPGQFGAARTDTGWPGRSVEGAVIYELHIGTFTTAGTFDAAIEKLDYLVDLGIDFVELMPVNSFAGTRGWGYDGVLWYSVHEPYGGPDGLVRFIDACHARRLGVLIDAVFNHLGPSGNYLPRFGPYLSSASNPWGDGINIAGADSDEVRHYIIDCALRWMRDFHADGLRLDAVHALVDTTAVHVLEELANATRWLSGQLGRPLSLIAETDRNDPRLITRPSHGGYGITAQWNDDIHHAIHTAVSGERQGYYADFGSLATLAYTLRNGYFHAGTYSSFRRRRHGRALDTSAIPATRLLAYTCTHDQVGNRALGDRPSQYLTGGQLAIKAALTLGSPYTAMLFMGEEWGASSPFQFFCSHPEPELAHSTVAGRKEEFAEHGWAADDIPDPQDPQTFQRCKLNWAEAGSGEHARLHRFYRDLIALRHNEADLADPWLDHLMVDYDEQQRWVVMRRGQLMIACNLGAEPTCVPVSGELVLAWESPIIGDNSTELAAYSLAILRAAEPA
MPEIIGKLLKSDGKVVSEIEKQVSQALIDLETNDDVQSQLKELYIVGVKEVELGNKSAIIIYVPVPQLKAFHKIHPALVRELEKKFGGRDILILAKRRILPKPQRGSKARPQKQKRPRSRTLTAVHDAWLDELVYPAEVVGRRIRVKLDGKKVYKVHLDKSHQTNVGHKIGVFASVYRKLTGKDVTFEFPDPIF
MPEILKVKPTRMELLKLKRRVKLAERGHKLLKEKQDALIMEFFTIYDEALSMRRELIKKIGEAFEALRLAQVEVGSVRLKEIAIGVNPNKEIEVRSRNIMGVRVPLIEVPELKRKPSERGYAFISTSSAVDVAAEKFEEVLELAIRLAEVEESLKRLGKEIEKTKRRVNALEYIIIPRMKNTIKFIEQHLDEMERENFFRLKRIKALLEARESMLEHHHHHH
MPEISRDEVAHLAKLSRLALTDEELDRFAEQIDGIIGNVSAVQQVAAEGVEPMSHPHSIKTTMREDVVEQILTPEQALDQAPAVDQQRFVVPQILGEQD

Soluble on expression in E. coli, soluble:
MNVPGAAPFLTAQSEEEATEVLESIHPDPEKSGARYIMSDERMAVDIFMAMPEWTLDTEGYMQPYWTGDGYQYLPSKRYFDSMESRLHFLDGNGLKQYRLVYETWAYQTQEAGYKQVYNFLYGSSIPEVDSGYVKIFEYVKGAKITGTVSPNETVNINTTILTGQGRTFELEHHHHHH
MNVRVLVVEDERDLADLITEALKKEMFTVDVCYDGEEGMYMALNEPFDVVILDIMLPVHDGWEILKSMRESGVNTPVLMLTALSDVEYRVKGLNMGADDYLPKPFDLRELIARVRALIRRKSESKSTKLVCGDLILDTATKKAYRGSKEIDLTKKEYQILEYLVMNKNRVVTKEELQEHLWSFDDEVFSDVLRSHIKNLRKKVDKGFKKKIIHTVRGIGYVARDE
MNYELLTTENAPVKMWTKGVPVEADARQQLINTAKMPFIFKHIAVMPDVHLGKGSTIGSVIPTKGAIIPAAVGVDIGCGMNALRTALTAADLPENLAELRQAIETAVPHGRTTGRCKRDKGAWENPPFNVDAKWAELEAGYQWLTQKYPRFLNTNNYKHLGTLGTGNHFIEICLDESEQVWIMLHSGSRGIGNAIGTYFIDLAQKEMQDQLETLPSRDLAYFMEGTEYFDDYLRAVAWAQLFASLNRDAMMENVVTALQSITQKTVRQPQTLAMEEINCHHNYVQKEQLFGEEIYVTRKGAVSARAGQYGIIPGSMGAKSFIVRGLGNEESFCSCSHGAGRVMSRTKAKKLFSVEDQIRATAHVECRKDAEVIDEIPMAYKDIDAVMAAQSDLVEVIYTLRQVVCVKGLEHHHHHH
MNYWLMKSEPDEFSIEDLKARPNQTEPWFGIRNYQARNYMRDAMQIGDKVFFYHSSCKVPGIVGIAEVVTNAYPDSTAFDPESTYFDPKSDPSNPRWLRVDIRFVEQFKEIIPLSLIKSLPQLADMYLVSKGSRLSIQPVTAEQWQAVLMLSRLEHHHHHH
MPAAPLCSPFPSPPPSFHTASLPFSIHAHHSPLPCDLDPPLYLAETVSLLEEWGPPSSCPMQCKLTSHPARLTHLPPCLWGFAVALKPSWAGLAPSLLPPPRMSLCRPLSFLRHQCPWLPWQAHQGLVPWSPSMVAAACIVSPSGHCRCQPFIPHVFLGHGGLTSVSGECG
MPEPTKKEEPSKEKEAGTTPAKDWTLVETPPGEEQAKQNANSQLSILFIEKPQGGTVKVGEDITFIAKVKAEDLLRKPTIKWFKGKWMDLASKAGKHLQLKETFERHSRVYTFEMQIIKAKDNFAGNYRCEVTYKDKFDSCSFDLEVHESTGTTPNIDIRSAFKRSGEGQEDAGELDFSGLLKRREVKQQEEEPQVDVWELLKNAKPSEYEKIAFQYGITDLRGMLKRLKRMRREEKKSAAFAKILDPAYQVDKGGRVRFVVELADPKLEVKWYKNGQEIRPSTKYIFEHKGCQRILFINNCQMTDDSEYYVTAGDEKCSTELFVREPPIMVTKQLEDTTAYCGERVELECEVSEDDANVKWFKNGEEIIPGPKSRYRIRVEGKKHILIIEGATKADAAEYSVMTTGGQSSAKLSVDLKPLKILTPLTDQTVNLGKEICLKCEISENIPGKWTKNGLPVQESDRLKVVQKGRIHKLVIANALTEDEGDYVFAPDAYNVTLPAKVHVIDPPKIILDGLDADNTVTVIAGNKLRLEIPISGEPPPKAMWSRGDKAIMEGSGRIRTESYPDSSTLVIDIAERDDSGVYHINLKNEAGEAHASIKVKVVDFPDPPVAPTVTEVGDDWCIMNWEPPAYDGGSPILGYFIERKKKQSSRWMRLNFDLCKETTFEPKKMIEGVAYEVRIFAVNAIGISKPSMPSRPFVPLAVTSPPTLLTVDSVTDTTVTMRWRPPDHIGAAGLDGYVLEYCFEGTEDWIVANKDLIDKTKFTITGLPTDAKIFVRVKAVNAAGASEPKYYSQPILVKEIIEPPKIRIPRHLKQTYIRRVGEAVNLVIPFQGKPRPELTWKKDGAEIDKNQINIRNSETDTIIFIRKAERSHSGKYDLQVKVDKFVETASIDIQIIDRPGPPQIVKIEDVWGENVALTWTPPKDDGNAAITGYTIQKADKKSMEWFTVIEHYHRTSATITELVIGNEYYFRVFSENMCGLSEDATMTKESAVIARDGKIYKNPVYEDFDFSEAPMFTQPLVNTYAIAGYNATLNCSVRGNPKPKITWMKNKVAIVDDPRYRMFSNQGVCTLEIRKPSPYDGGTYCCKAVNDLGTVEIECKLEVKV
